Source: paper PMC8646926 (Advanced Biology, 2021)
Like-named read-outs stand apart in the source and are kept apart here.

B1: 2INS27 (VHH)
VHH: QVQLQESGGGLVQAGGSLRLSCATSGSIFSSAVMGWYRQAPGNERELVALIGSSDTTDYSNSVKGRFTISRDNAKNTAYLRMNSLKPEDTAVYYCTAVKYGLGGFVYWGQGTQVTVSS
B2: 3NSP52 (VHH)
VHH: QVQLQESGGGLVQPEGSLRLSCAASGLTFDSYAIGWFRQAPGKEREFVAASIWSGDSGHYTGSVKGRFTISRDNAKNTVDLQMNSLKPEDTAVYYCAASASFLHSANYHMRAKWGYWGQGTQVTVSS
B3: 2INS64 (VHH)
VHH: QVQLQESGGGLVQVGGSLRLSCAASGSILSINAMGWYRQAPGKQRELVAAITSGGSTNYADSVKGRFTISRDNAKNMLYLQMNSLKPEDTAVYYCHVVTGWGPLDWGQGTQVTVSS
B4: 2INS45 (VHH)
VHH: QVQLQESGGGLVQAGGSLRLSCAASGFTLSSNDMGWYRQAPGKQRELVATITSGLSTNYADSVKGRFTISRDNAKNTVFLQMNSLKIEDTAVYYCEVERGWGPPRDYWGHGTQVTVSS
B5: 3NSP78 (VHH)
VHH: QVQLQESGGGLVQAGGSLRLSCAASGRAFSSYVMGWFRQAPGKEREFVAAIHWTGAATVYVDSVKGRFAISRHNAKNTVYLEMNSLKPEDTAVYYCAADPSGSYWPPKRYDYWGQGTQVTVSS
B6: 2INS69 (VHH)
VHH: QVQLQESGGGLVRAGDSLRLSCAVSGRTFSSVAMGWFRQAPGKEREFVAFISGSTGSVTYYADSVKGRFAISRDNAKNTVYLQMNSLKPEDTAVYDCAAKFTGTFNYQGLYDYWGQGTQVTVSS
B7: nanobody 2NSP23 (VHH)
VHH: QVQLQESGGGLVQPGGSLRLSCAASGLAFSMYTMGWFRQAPGKEREFVAMIISSGDSTDYADSVKGRFTISRDNGKNTVYLQMDSLKPEDTAVYYCAAPKFRYYFSTSPGDFDSWGQGTQVTVSS
B8: nanobody 2NSP90 (VHH)
VHH: QVQLQESGGGLVQTGDSLRLSCAVSGRTFSTYSVGWFRQAPGKEREFVALRWSGGTTYYADSVVGRFTVSRDNAKNTVYLEMNSLKPEDTAVYYCAADRGSGSYSPTYRWDYWGQGTQVTVSS

Legend:
[1] = target: T1, SARS-CoV-2 Nsp9, wild type, purified recombinant (SARS-CoV-2, UniProt P0DTD1)
[2] = target: T1, SARS-CoV-2 Nsp9, wild type, purified …; test: far-Western, overlay or dot blot; conditions: both partners purified
[3] = target: T1, SARS-CoV-2 Nsp9, wild type, purified …; test: NMR titration; conditions: both partners purified

| Binder | binding result [1] | further results |
| --- | --- | --- |
| B1 | binds |  |
| B2 | binds |  |
| B3 | binds |  |
| B4 | binds |  |
| B5 | binds |  |
| B6 | binds |  |
| B7 |  | binding result [2]: binds |
| B8 |  | stoichiometry N [3]: 3 to 4 |
